The target of this assay is HR2 (heptad repeat 2) polypeptide of SARS-CoV-2 spike protein (SARS-CoV-2) (UniProt P0DTC2). Kind of assay: AUC; sedimentation velocity, 50,000 rpm, 20 C, 50 mM NaCl, 25 mM sodium phosphate pH 6.0, no detergent; monomer to tetramer.

As a reminder, the stoichiometry N is the number of molecules, sites or subunits per partner or assembly. The substance “HR2 (heptad repeat 2) polypeptide of SARS-CoV-2 spike protein (from UniProt P0DTC2 1171-1207) (domain or fragment)” had a monomer population at 250 uM of 10% and a stoichiometry N of 4.

Source of the values: PMC8500521.
